From patent publication US20240016952A1 (published 2024)
Residue numbers refer to the chain shown, from its start. Numbers in names are those of the source. Blank lines part the entries; values can stand above or below the binder they belong to.

Columns and labels:
[1] = biological target: T1, cynomolgus monkey transferrin receptor 1 (cTfR1) (cynomolgus monkey (Macaca fascicularis), UniProt Q5RDH6 89-760 (Pongo abelii entry), limits assumed); experiment: surface plasmon resonance
T1 construct: Recombinant cynomolgus TfR1; also called cyTfR1; cyno TfR1
T1 chain: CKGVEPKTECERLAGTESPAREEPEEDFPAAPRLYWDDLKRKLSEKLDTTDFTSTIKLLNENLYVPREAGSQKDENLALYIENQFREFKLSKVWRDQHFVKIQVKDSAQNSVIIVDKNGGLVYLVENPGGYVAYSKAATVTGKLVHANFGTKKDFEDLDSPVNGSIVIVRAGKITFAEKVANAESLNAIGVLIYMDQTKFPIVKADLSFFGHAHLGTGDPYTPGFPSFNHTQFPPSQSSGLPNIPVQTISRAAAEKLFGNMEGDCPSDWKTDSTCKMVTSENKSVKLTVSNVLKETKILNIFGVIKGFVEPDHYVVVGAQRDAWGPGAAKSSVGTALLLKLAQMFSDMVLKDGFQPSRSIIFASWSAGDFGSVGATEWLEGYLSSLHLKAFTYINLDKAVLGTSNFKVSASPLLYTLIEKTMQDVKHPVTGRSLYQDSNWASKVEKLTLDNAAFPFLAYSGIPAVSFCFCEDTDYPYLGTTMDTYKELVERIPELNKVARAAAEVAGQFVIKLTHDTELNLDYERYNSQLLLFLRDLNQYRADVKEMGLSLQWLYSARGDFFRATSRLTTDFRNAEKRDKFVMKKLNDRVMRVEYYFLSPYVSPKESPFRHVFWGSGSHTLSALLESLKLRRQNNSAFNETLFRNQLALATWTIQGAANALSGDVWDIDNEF

[2] = biological target: T1, cynomolgus monkey transferrin receptor …; experiment: ELISA, cyno TfR1, Fab after 9 days at 40 C
[3] = biological target: T1, cynomolgus monkey transferrin receptor …; experiment: ELISA on plate-coated cyno TfR1, unconjugated Fab
[4] = biological target: T1, cynomolgus monkey transferrin receptor …; experiment: ELISA, cyno TfR1, Fab, day 0 of thermal stability test
[5] = biological target: T2, TfR1 (species not stated; Biacore analyses of Table 14 and Table 16) (Homo sapiens (Human), UniProt P02786 89-760); experiment: Biacore kinetic analysis; parameters: unit not given here
T2 construct: also called target antigen

[6] = biological target: T3, human transferrin receptor 1 (hTfR1) (human, UniProt P02786 89-760); experiment: average KD, antibody alone; method not given
T3 construct: Recombinant human TfR1; also called huTfR1; Human TfR1

[7] = biological target: T1, cynomolgus monkey transferrin receptor …; experiment: average KD, antibody alone; method not given
[8] = biological target: T3, human transferrin receptor 1 (hTfR1); experiment: Carterra LSA SPR, IgG captured on anti-IgG chip, hTfR1 injected, 25 C, 1:1 fit

- Kd [1]: 5.18 nM
- koff [1]: 0.000476 s⁻¹
- kon [1]: 91900 M⁻¹ s⁻¹
- Binding affinity cyno TfR1 d 9 [2]: 16.4 nM
- Fab binding affinity ELISA [3]: 2.2 nM
- Binding affinity cyno TfR1 d 0 [4]: 2.2 nM
B1: humanized anti-TfR Fab 3M12 VH4/Vk3 (Fab, V domains shown)
VH: QVQLQESGPGLVKPSQTLSLTCTVTGYSITSGYYWNWIRQPPGKGLEWIGYITFDGANNYNPSLKNRVSISRDTSKNQFSLKLSSVTAEDTATYYCTRSSYDYDVLDYWGQGTTVTVSS
VL: DIQMTQSPSSLSASVGDRVTITCRASQDISNFLNWYQQKPGQPVKLLIYYTSRLHSGVPSRFSGSGSGTDFTLTISSLQPEDFATYYCQQGHTLPYTFGQGTKLEIKR

- koff [5]: 65.6
- Binding affinity cyno TfR1 d 9 [2]: 248 nM
- Fab binding affinity ELISA [3]: 398 nM
- Binding affinity cyno TfR1 d 0 [4]: 398 nM
B2: humanized anti-TfR Fab 3A4 VH3 (N54S)/Vk4 (Fab, V domains shown)
VH: EVQLVQSGSELKKPGASVKVSCTASGFNIKDDYMYWVRQPPGKGLEWIGWIDPESGDTEYASKFQDRVTVTADTSTNTAYMELSSLRSEDTAVYYCTLWLRRGLDYWGQGTLVTVSS
VL: DIVMTQSPLSLPVTPGEPASISCRSSKSLLHSNGYTYLFWFQQRPGQSPRLLIYRMSNLASGVPDRFSGSGSGTDFTLKISRVEAEDVGVYYCMQHLEYPFTFGGGTKVEIKR

- koff [5]: 115
- Binding affinity cyno TfR1 d 9 [2]: 878 nM
- Fab binding affinity ELISA [3]: 122 nM
- Binding affinity cyno TfR1 d 0 [4]: 122 nM
B3: humanized anti-TfR Fab 3A4 VH3/Vk4 (Fab, V domains shown)
VH: B2 VH with S55N
VL: B2 VL

- Kd [6]: 0.8 nM
- Kd [7]: 1 nM
- Kd [8]: 0.283 nM
B4: 15G11 (control anti-TfR1 antibody) (antibody, V domains shown)
VH: QVQLQQPGAELVKPGASVKLSCKASGYTFTSYWMHWVKQRPGQGLEWIGEINPTNGRTNYIEKFKSKATLTVDKSSSTAYMQLSSLTSEDSAVYYCARGTRAYHYWGQGTSVTVSS
VL: DIQMTQSPASLSVSVGETVTITCRASDNLYSNLAWYQQKQGKSPQLLVYDATNLADGVPSRFSGSGSGTQYSLKINSLQSEDFGTYYCQHFWGTPLTFGAGTKLELK
